Positions of bridges follow the written chain, without caps; N, C: chain ends. Residues, ends and D or L forms follow the SMILES beside them. *: point of attachment. X1 = CC[N+]1=C(/C=C/C=C/C=C2/N(CCCCCC(=O)*)c3ccc(S(=O)(=O)O)cc3C2(C)C)C(C)(C)c2cc(S(=O)(=O)[O-])ccc21; X3 = C[N+]1=C(/C=C/C=C/C=C2/N(CCCCCC(=O)*)c3ccccc3C2(C)C)C(C)(C)c2cc(S(=O)(=O)[O-])ccc21; X2 = NC(=O)COCC(=O)NCCOCCOCCOCCN*
Test: in vitro
Conditions: blood plasma
Experimental: Protein Binding Analysis of Dye Conjugates Containing 1, 2 and 4 Sulphonic Acid Groups
An analysis of protein binding of the dye conjugates of the invention was performed by an equilibrium dialysis and rate dialysis as described in the book “Protein-Ligand Interactions: Hydrodynamics and calorimetry”, edited by Stephen E. Harding and Babur Z. Chowdhry, Oxford University Press, published 2001, chapter 2 by Bent Honoré, Department of Medical Biochemisty, University of Aarhus.

Row | SMILES | fraction unbound
1 | C[N+]1=C(/C=C/C=C/C=C2/N(CCCCCC(=O)NCCCC[C@@H]3NC(=O)CSC[C@@H](C(=O)NCCOCCOCCOCCNC(=O)COCC(N)=O)NC(=O)[C@H](Cc4ccccc4)NC(=O)[C@@H]4CSSC[C@H](NC3=O)C(=O)N[C@@H](CCCNC(=N)N)C(=O)NCC(=O)N[C@@H](CC(=O)O)C(=O)N4)c3ccccc3C2(C)C)C(C)(C)c2cc(S(=O)(=O)[O-])ccc21 [Compound A, Cys2-6; c[CH2CO-Lys(Cy5 mono-SO3)-Cys-Arg-Gly-Asp-Cys-Phe-Cys]-(PEG)n-NH2 (n=1)] ({CH2CO}-K(X3)CRGDCFC-X2; disulfide 2-6; thioether N-8) | 0.83
2 | CC[N+]1=C(/C=C/C=C/C=C2/N(CCCCCC(=O)NCCCC[C@@H]3NC(=O)CSC[C@@H](C(=O)NCCOCCOCCOCCNC(=O)COCC(N)=O)NC(=O)[C@H](Cc4ccccc4)NC(=O)[C@@H]4CSSC[C@H](NC3=O)C(=O)N[C@@H](CCCNC(=N)N)C(=O)NCC(=O)N[C@@H](CC(=O)O)C(=O)N4)c3ccc(S(=O)(=O)O)cc3C2(C)C)C(C)(C)c2cc(S(=O)(=O)[O-])ccc21 [Compound B, Cys2-6; c[CH2CO-Lys(Cy5 bis-SO3)-Cys-Arg-Gly-Asp-Cys-Phe-Cys]-(PEG)n-NH2 (n=1)] ({CH2CO}-K(X1)CRGDCFC-X2; disulfide 2-6; thioether N-8) | 0.79
3 | CC[N+]1=C(/C=C/C=C/C=C2/N(CCCCCC(=O)NCCCC[C@@H]3NC(=O)CSC[C@@H](C(=O)NCCOCCOCCOCCNC(=O)COCC(N)=O)NC(=O)[C@H](Cc4ccccc4)NC(=O)[C@@H]4CSSC[C@H](NC3=O)C(=O)N[C@@H](CCCNC(=N)N)C(=O)NCC(=O)N[C@@H](CC(=O)O)C(=O)N4)c3ccc4c(S(=O)(=O)O)cc(S(=O)(=O)O)cc4c3C2(C)C)C(C)(C)c2c1ccc1c(S(=O)(=O)O)cc(S(=O)(=O)O)cc21 [Compound C] | 0.55
